This is an account of results in the supplement of paper PMC12042874.

± gives the uncertainty stated by the source.

A short description of the series: amyloid nucleation score (Sup35N fusion, yeast selection) (log enrichment); library NNK3; higher = more nucleation; inactive = no reads after selection. An outline of the steps: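 In psi-negative yeast, Sup35N fusions carrying peptides of 20 random codons were induced with 100 μM copper sulfate for 24 hours. The cells then grew 7 days at 30°C on medium lacking adenine and uracil, and plasmid inserts from input and output were Illumina-sequenced, excluding sequences with under 100 input reads. Nucleation score is the DiMSum log enrichment of output over input reads, centred on the mode score of non-aggregating sequences.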
As to GFFSLYVVE, the amyloid nucleation score entry was “inactive”.
For the substance GLYSDNSVYTLQMFIEGAHH, the amyloid nucleation score is 0.4 ± 0.3.
As for VAGSRCMDAWVKWCMVIRMF, the amyloid nucleation score is 0.247 ± 0.25.
CSNLIIMKNSIERQTAFRYN gave an amyloid nucleation score of 0.284 ± 0.14.
As to GASMLGAIKGYSTSERISLD, the amyloid nucleation score was 0.175 ± 0.45.
As to FDFWEDRVCPIYNCLGCGKL, the amyloid nucleation score entry is “inactive”.
ELLHKAF: the amyloid nucleation score entry is “inactive”.
The same measure for HVCHKTYLSLKLHKLDFFYS: 0.391 ± 0.17; for TAAYSLFIEVSCSQSTN: “inactive”; for GRCNLGSMNNWFKLPLKSVR: “inactive”.
Regarding GCKWWYSVFREWKSPLSGGV, the amyloid nucleation score result is “inactive”.
Consider AVGLRRPLCMYF, for which the amyloid nucleation score result is “inactive”.
In the case of DAWDDNYNASRIGFAYMYSI, the amyloid nucleation score entry is “inactive”.
Consider FNERIRTNLFDSWTMWGMCF, for which the amyloid nucleation score entry is “inactive”.
In turn, FFENWKLGDFAYRRIGTLLK came in with an amyloid nucleation score of -0.515 ± 0.66.
As for ETSITHLGILAVLGCNNGSE, the amyloid nucleation score result was “inactive”.
The same measure for RVFYIVDMVFIFKRCSIRES: “inactive”.
Regarding SSHIRWHGN, the amyloid nucleation score result is “inactive”.
The same measure for IWWKNIGCAKYWVIPLRQWA: “inactive”; for SFVPDLRARVMSCSGCSTLG: “inactive”; for QFLIVGFAYLPSLA: “inactive”.
In turn, LCPHPPFLCLVQQRFTTGSG showed an amyloid nucleation score of -0.123 ± 0.33.
The same measure for FHNFVRHIYAGGNRP: “inactive”.
AALHKRTAAQNVPKELGLTM gave an amyloid nucleation score of 0.227 ± 0.63.
For VLFSGFFYLSDNYKLMGFVH, the amyloid nucleation score result was “inactive”.
On to LLFQMVHLTCVMYLLVSSTL, for which the amyloid nucleation score result is “inactive”.
The entry for HCNFMRFCLRAFSSGMHWLF is “inactive”; for RPVSTSYVRLRRVRFSYNLN it is “inactive”; for STASILFIGVKYVM it is 0.889 ± 0.32.
For YFLSDLQRKGSGLETVRVCR, the amyloid nucleation score entry was “inactive”.
LYSCMFIMLFQNYFLPIGVA: the amyloid nucleation score entry was “inactive”.
RSTTTMEYWFSCAVYSPKSV yielded an amyloid nucleation score of 0.682 ± 0.12.
Regarding NRSSKWVISYRATICLLPMD, the amyloid nucleation score result was “inactive”.
Substance CLPSVRQKGSWRLR displayed an amyloid nucleation score of -0.338 ± 0.82.
Consider SASVGFGHSSWNPIIGMIRI, for which the amyloid nucleation score entry is “inactive”.
The same measure for NKWLDRNKG: “inactive”.
Substance SFSSLQFVNIATPHY showed an amyloid nucleation score of 0.42 ± 0.2.
In the case of TWRKGVSVLVLSGFVVTNQR, the amyloid nucleation score entry was “inactive”.
Consider SRFGMHKDTKMWSSRCRCVR, for which the amyloid nucleation score result is “inactive”.
HYNSSSFRVGPCVSLGNHTQ: the amyloid nucleation score entry is “inactive”.
DSRKRKVRF: the amyloid nucleation score entry is “inactive”.
Regarding VCTKWGQYFCPYPVLCGWVR, the amyloid nucleation score entry was “inactive”.
The entry for STLGRKVRFTVVLITIGVLT is “inactive”.
NSSNVFVLIVCMYWKFSYSC: the amyloid nucleation score result was “inactive”.
With LYIIKSR, the amyloid nucleation score was -0.51 ± 1.7.
Turning to IRDVG, the amyloid nucleation score is -0.573 ± 1.
On to LACRFILNAEVEICLAWKLG, for which the amyloid nucleation score result was “inactive”.
With APHLFLARYLYVCLYCENEW, the amyloid nucleation score worked out at 1.25 ± 0.11.
With YLTMYDSNDIFTIVATVMST, the amyloid nucleation score result is “inactive”.
For the substance FYIYWLFPIIVSFDYVFSGL, the amyloid nucleation score result was “inactive”.
With GWFMCVSTAWGVYNAYIPMQ, the amyloid nucleation score result is “inactive”.
In the case of IYTCSTRSSSFYRRMIRSFL, the amyloid nucleation score result was “inactive”.
HDVFSNYLITVQTFLWLSGV: the amyloid nucleation score result is “inactive”.
The same measure for MGTRFVLGPVQNLCDIGSAW: “inactive”; for DVAWHRSACEYLFM: “inactive”.
Turning to YRRLCGDCGFGTLRLDLLFV, the amyloid nucleation score result was “inactive”.
On to SHNSHGYFLSVLVVMRMSGR, for which the amyloid nucleation score result was “inactive”.
AVINVILIIVSECRNSN displayed an amyloid nucleation score of 1.9 ± 0.075.
As for HLSLRNNNAPDYPSGNSFWE, the amyloid nucleation score entry is “inactive”.
In the case of RSGSLIGAVYRNMVVLNRMG, the amyloid nucleation score result is “inactive”.
Take SFFTWYTSFSKDDLWSGLTV: the amyloid nucleation score result is “inactive”.
As for AIHTSPLIIPPNRFVRYRNR, the amyloid nucleation score entry was “inactive”.
The same measure for LRGMDYVCDEPLYVTLWVNR: “inactive”; for QDAMSTEVEGTF: “inactive”; for DLCGNPVPVQSSGLGYDGLV: “inactive”.
LFHDLGFAD: the amyloid nucleation score result is “inactive”.
On to DTQQENCRTRGVRRGPRFCG, for which the amyloid nucleation score result was “inactive”.
Take HNRRKR: the amyloid nucleation score was -0.16 ± 0.4.
Take GKLCYYSVYWESALNQPRSS: the amyloid nucleation score result was “inactive”.
As for MSGLENVACDYKRELAMKRS, the amyloid nucleation score result was “inactive”.
As to SQLRP, the amyloid nucleation score result is “inactive”.
As to RYYIMILLS, the amyloid nucleation score entry is “inactive”.
In turn, CMAIVATATRSGPVGRSLAK had an amyloid nucleation score of 0.508 ± 0.33.
The entry for RWFLSWWIYFEVKPNDNSFF is “inactive”; for VMYGEVSDTYMAREICKFSA it is “inactive”; for AAAMVKAMIDVITGKIPVAE it is “inactive”.
TAEKSGVGLFGGTSVFLFES: the amyloid nucleation score entry is “inactive”.
The entry for VDNHACPWTGGLHFRKLWNG is “inactive”; for AVTKNVTERFHMLMPKDWVG it is “inactive”.
The entry for LLEIPNSRDGFHRGSTVGDL is “inactive”; for CIRSS it is “inactive”; for GSVFGKVGTVKSEMPRGSSN it is “inactive”.
In the case of RSNYRGYFK, the amyloid nucleation score was -0.498 ± 1.4.
SFLAYYMFYM: the amyloid nucleation score result was “inactive”.
In the case of RVLYSFQCAFLMDKETSSGR, the amyloid nucleation score entry is “inactive”.
Take LHGCTEITKGNYLPNNAVD: the amyloid nucleation score entry is “inactive”.
Take DVRIIAV: the amyloid nucleation score result is “inactive”.
In the case of VVFWNFTRMLCLG, the amyloid nucleation score result is “inactive”.
For VNVTIGIYKRHRYLWSGIAM, the amyloid nucleation score result is “inactive”.
In the case of HKCGQDFYR, the amyloid nucleation score entry is “inactive”.
The entry for NDWREANLF is “inactive”; for LICVYVWVHCLMNPYHAINR it is 0.199 ± 0.16.
On to YSSECALWNCRACVLYIHYR, for which the amyloid nucleation score was found to be 1.27 ± 0.16.
Consider TINRLLICI, for which the amyloid nucleation score is -0.14 ± 0.57.
The same measure for SYDNWWCVILMRNQGRCAWG: “inactive”; for HRAPMSHPVCLMIKWLLWVL: “inactive”; for EFDDRACYDDTV: “inactive”.
Consider FYIYP, for which the amyloid nucleation score result was “inactive”.
Regarding YFMVRWYCAGLDILCGLQEK, the amyloid nucleation score result is “inactive”.
Regarding LWRKMVVPYFYP, the amyloid nucleation score result is “inactive”.
With LLVTQGVYS, the amyloid nucleation score was 1.17 ± 0.12.
The same measure for CEQDTCFIHISRYTTVNNTM: “inactive”.
The same measure for TRFLFCFNWIWGEPVACEYE: 2.39 ± 0.07.
Turning to IGVKSYWLRRSYLLFKYWMV, the amyloid nucleation score entry is “inactive”.
Turning to WDFRV, the amyloid nucleation score entry was “inactive”.
Turning to SDRAHGQFFRPGERLPSNPW, the amyloid nucleation score is -0.069 ± 0.52.
On to QVDISNLDCQSCRDKRVGLG, for which the amyloid nucleation score result was “inactive”.
Turning to PYFQFGSSCE, the amyloid nucleation score result is “inactive”.
The figure for ARLSLWS is 0.733 ± 0.31.
Consider RPVSGTNFINAN, for which the amyloid nucleation score entry is “inactive”.
For DFRLFFCLYGVYNLRYCFGW, the amyloid nucleation score entry was “inactive”.
Consider SWGIEDSVSYEMETDVVSNW, for which the amyloid nucleation score entry was “inactive”.
As for MFRVSWFLISGLLRSVAWNG, the amyloid nucleation score entry was “inactive”.
On to LYVDCGLRIWRNMSAIVGCV, for which the amyloid nucleation score result is “inactive”.
The entry for QLHNYARMKAQLLAVQV is “inactive”.
The same measure for IATTDIYAAYFYSLMQAIYR: “inactive”; for SSGSPFNCWHSLHCSSRPFK: “inactive”; for CLYKSFLIS: “inactive”.
MSCTDRYEIL: the amyloid nucleation score result is “inactive”.
For ELLCLIYMDLHVCWQGLTMQ, the amyloid nucleation score result is “inactive”.
On to CTRITHGGGVTSLRNTSESN, for which the amyloid nucleation score entry was “inactive”.
For the substance RVYFKTGFPMVLLSKKRGSE, the amyloid nucleation score is 0.952 ± 0.19.
With CYIGCNLEILNRRDKPFIIR, the amyloid nucleation score entry is “inactive”.
Turning to VQVMETEMRSVVA, the amyloid nucleation score result was “inactive”.
The entry for TDHNDLMKLFATRCSPNPCL is “inactive”; for IFWICWLGFVNCVYTAEIPT it is “inactive”; for PRASYMGRSKL it is “inactive”.
With FFVQSGIIEELYTW, the amyloid nucleation score came to 0.173 ± 0.31.
With FQVEKQF, the amyloid nucleation score entry was “inactive”.
With YLVSYFNRGQSAFRFWDKFA, the amyloid nucleation score entry is “inactive”.
For HTGHHWNRLHETQNSRL, the amyloid nucleation score result is “inactive”.
